Laboratory results as given in patent US20240174716A1 (VACINO BIOTECH, published 2024).

What follows are binders tested against T1, TfR protein (Acro Biosystems. Cat. No. CD1-H5243) (UniProt P02786 89-760) (assay: FOPPR (fiber optic particle plasmon resonance); peptide coupled to chip, TfR protein loaded at 0.5-1000 ng/mL).
T1 construct: Bought recombinant protein; also called TfR1; transferrin receptor
T1 sequence (P02786 89-760 limits assumed): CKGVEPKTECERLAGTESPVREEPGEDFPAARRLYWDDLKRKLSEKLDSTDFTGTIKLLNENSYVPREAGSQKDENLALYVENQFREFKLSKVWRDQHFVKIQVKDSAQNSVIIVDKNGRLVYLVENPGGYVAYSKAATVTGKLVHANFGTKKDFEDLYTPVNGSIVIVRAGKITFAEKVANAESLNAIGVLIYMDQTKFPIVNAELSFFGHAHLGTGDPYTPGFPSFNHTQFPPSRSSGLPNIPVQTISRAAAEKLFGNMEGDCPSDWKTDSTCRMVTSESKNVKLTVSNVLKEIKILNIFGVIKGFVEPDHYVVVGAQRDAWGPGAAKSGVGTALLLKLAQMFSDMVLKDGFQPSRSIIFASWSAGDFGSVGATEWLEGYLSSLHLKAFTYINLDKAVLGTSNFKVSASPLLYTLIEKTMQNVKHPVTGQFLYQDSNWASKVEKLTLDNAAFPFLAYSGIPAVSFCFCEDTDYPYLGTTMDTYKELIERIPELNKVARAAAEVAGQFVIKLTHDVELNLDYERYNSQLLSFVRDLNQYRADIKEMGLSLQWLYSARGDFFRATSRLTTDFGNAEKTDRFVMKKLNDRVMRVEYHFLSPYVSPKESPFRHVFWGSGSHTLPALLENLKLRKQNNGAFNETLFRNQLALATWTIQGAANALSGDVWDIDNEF
Method: In this Example, the binding affinity of the transporter peptides disclosed herein to TfR was analyzed by fiber optic particle plasmon resonance (FOPPR). In this Example, different amino acid sites of the transporter peptide were further substituted with different amino acids of the same property to anaylze binding affinity of these variant peptides to the transferrin receptor.
To determine the affinity of the targeting peptide to TfR1, a fiber optic particle plasmon resonance (FOPPR) affinity study was performed according to the manufacturer's instruction. Briefly, 80 μL of tested peptide (10 μg/ml) dissolved in PBS buffer (pH 7.4) was pipetted into the EDC/NHS preactivated surface of standard chip NanoAu-MM (Taipei, Taiwan) for peptide conjugating to the carboxyl group of the surface sensor chip. TfR protein (Acro Biosystems. Cat. No. CD1-H5243, Newark, DE, USA) was loading to the chip with at the concentrations of 0.5 ng/mL, 1 ng/mL, 10 ng/mL, 100 ng/mL, 500 ng/mL, and 1000 ng/mL, respectively. Based on the light intensity change, the molecules interaction parameters of KD were calculated by the FOPPR system D200 (Id M3) (Taipei, Taiwan).
DITVLCKEYN (10-mer; also called transporter peptide) [PT-066] showed a Kd of 86.1 nM. Work on DISVLMKEYD (10-mer; also called transporter peptide) [PT-001] yielded a Kd of 71 nM. For DISVIMKEYD (10-mer; also called transporter peptide) [PT-023], the Kd was 22.8 nM. Binder DIDVLMKEYD (10-mer; also called transporter peptide) [PT-004] has a Kd of 18.5 nM. In the case of DIHVLMKEYD (10-mer; also called transporter peptide) [PT-008], the Kd is reported as 8.07 nM. DIHVLDKEYD (10-mer; also called transporter peptide) [PT-067] showed a Kd of 0.45 nM. In the case of DISVLEKEYD (10-mer; also called transporter peptide) [PT-029], the Kd is reported as 3.62 nM. For DILVLMKEYD (10-mer; also called transporter peptide) [PT-011], the Kd was 3.23 nM. For DISVLMKESD (10-mer; also called transporter peptide) [PT-056], the Kd was 4.1 nM. Binder DISVLQKEYD (10-mer; also called transporter peptide) [PT-030] has a Kd of 10.3 nM. In the case of DISVLMKEYE (10-mer; also called transporter peptide) [PT-033], the Kd is reported as 261 nM. DISLLMKEYD (10-mer; also called transporter peptide) [PT-022] gave a Kd of 36.6 nM. In the case of DISVLMKHYD (10-mer; also called transporter peptide) [PT-065], the Kd is reported as 0.57 nM. Work on DISVLMKETD (10-mer; also called transporter peptide) [PT-057] yielded a Kd of 1.92 nM. DISVLMKEFD (10-mer; also called transporter peptide) [PT-055] gave a Kd of 6.08 nM. Work on DISVLMKEYN (10-mer; also called transporter peptide) [PT-031] yielded a Kd of 4.45 nM. With DISVLNKEYD (10-mer; also called transporter peptide) [PT-026] the Kd was 26 nM. Work on DISVLMKDYD (10-mer; also called transporter peptide) [PT-054] yielded a Kd of 59.3 nM. DISVVMKEYD (10-mer; also called transporter peptide) [PT-024] was tested, and the Kd was 8.22 nM. For DISVLSKEYD (10-mer; also called transporter peptide) [PT-051], the Kd was 70 nM. DIPVLMKEYD (10-mer; also called transporter peptide) [PT-014] was tested, and the Kd was 52.3 nM. Work on DISVLCKEYD (10-mer; also called transporter peptide) [PT-027] yielded a Kd of 0.27 nM. With NISVLMKEYD (10-mer; also called transporter peptide) [PT-062] the Kd was 1.3 nM. Work on DISVLKKEYD (10-mer; also called transporter peptide) [PT-028] yielded a Kd of 5.14 nM. DISVLMKEYQ (10-mer; also called transporter peptide) [PT-034] was tested, and the Kd was 39.3 nM. Work on DITVLMKEYD (10-mer; also called transporter peptide) [PT-017] yielded a Kd of 4.77 nM. For DISELMKEYD (10-mer; also called transporter peptide) [PT-063], the Kd was 16.6 nM. In the case of DISVLDKEYD (10-mer; also called transporter peptide) [PT-025], the Kd is reported as 0.43 nM. DISVLLKEYD (10-mer; also called transporter peptide) [PT-064] showed a Kd of 10.5 nM.
